Measurements published in paper PMC2956063.
Where no end group is shown, it is not given here.

Assays:
[1] = biological target: recombinant γN308K fibrinogen (UniProt P02671); assay: plasmin protection assay
[2] = biological target: normal recombinant fibrinogen (UniProt P02671); assay: plasmin protection assay

- GPRP concentration at which fragment D1 was readily evident [1]: 0.5 mM
- GPRP concentration of full protection [1]: > 20 mM
- fold weaker than normal fibrinogen [1]: 10 fold
- GPRP concentration of full protection [2]: 5 mM
B1: GPRP-amide (peptide)
peptide: GPRP-NH2
